Laboratory results: patent US20240117334A1 (VERTEX PHARMACEUTICALS, published 2024)
Several values for one entry are separate records, joined by “and”; a condition that tells them apart may be missing. Identical values can stand only once.

T1: Plasma antichymotrypsin (ACT) (UniProt P01011 24-423)
T1 construct: also called plasma ACT
T1 sequence (looked up): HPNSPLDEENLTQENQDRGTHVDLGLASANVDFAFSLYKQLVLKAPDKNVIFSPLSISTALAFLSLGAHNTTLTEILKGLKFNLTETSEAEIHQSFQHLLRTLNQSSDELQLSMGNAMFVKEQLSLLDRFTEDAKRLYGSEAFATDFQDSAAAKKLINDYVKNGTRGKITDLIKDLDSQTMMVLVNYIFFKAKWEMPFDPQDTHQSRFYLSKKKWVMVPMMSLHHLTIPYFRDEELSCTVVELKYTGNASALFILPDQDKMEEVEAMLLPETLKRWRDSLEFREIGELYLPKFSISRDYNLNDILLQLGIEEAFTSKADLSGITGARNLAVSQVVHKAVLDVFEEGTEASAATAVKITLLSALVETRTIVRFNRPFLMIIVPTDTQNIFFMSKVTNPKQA


Legend:
[1] = biological target: Human Factor B (human, UniProt P00751 26-764); assay: cell-based or functional assay
[2] = biological target: T1, Plasma antichymotrypsin (ACT); assay: serpin inhibition of the protease

Sequence of Human Factor B (P00751 26-764 limits assumed): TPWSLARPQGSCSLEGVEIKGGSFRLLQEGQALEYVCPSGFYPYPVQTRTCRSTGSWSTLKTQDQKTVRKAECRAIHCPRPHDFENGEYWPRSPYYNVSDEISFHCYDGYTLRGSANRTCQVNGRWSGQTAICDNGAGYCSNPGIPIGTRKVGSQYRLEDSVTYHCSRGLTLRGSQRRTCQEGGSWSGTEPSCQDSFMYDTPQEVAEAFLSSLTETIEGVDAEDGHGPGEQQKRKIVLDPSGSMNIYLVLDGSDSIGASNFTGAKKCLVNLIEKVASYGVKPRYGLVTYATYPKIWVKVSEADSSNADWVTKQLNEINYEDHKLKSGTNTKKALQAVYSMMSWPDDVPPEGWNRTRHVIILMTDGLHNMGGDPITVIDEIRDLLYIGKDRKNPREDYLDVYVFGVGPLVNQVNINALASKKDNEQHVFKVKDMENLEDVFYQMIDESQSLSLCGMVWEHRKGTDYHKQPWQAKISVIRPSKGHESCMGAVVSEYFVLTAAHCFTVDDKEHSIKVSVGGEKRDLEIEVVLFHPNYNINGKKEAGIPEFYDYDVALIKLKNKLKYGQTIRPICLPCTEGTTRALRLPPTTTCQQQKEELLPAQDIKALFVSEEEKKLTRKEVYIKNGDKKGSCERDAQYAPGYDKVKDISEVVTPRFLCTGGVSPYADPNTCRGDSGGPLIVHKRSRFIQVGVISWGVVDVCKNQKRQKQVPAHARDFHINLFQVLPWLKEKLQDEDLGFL

| kapp [2] [M⁻¹ s⁻¹] | fB Cleavage EC50 [1] | Binder | other results |
| --- | --- | --- | --- |
|  | 6.37 µM | chymase C22S/K192R/A226R (enzyme) IIGGTESKPHSRPYMAYLEIVTSNGPSKFCGGFLIRRNFVLTAAHCAGRSITVTLGAHNITEEEDTWQKLEVIKQFRHPKYNTSTLHHDIMLLKLKEKASLTLAVGTLPFPSQFNFVPPGRMCRVAGWGRTGVLKPGSDTLQEVKLRLMDPQACSHFRDFDHNLQLCVGNPRKTKSAFRGDSGGPLLCAGVAQGIVSYGRSDAKPPRVFTRISHYRPWINQILQAN |  |
|  | 1.15 µM | chymase C22S/L99H/F173Y/K192R/S218L/A226R (enzyme) IIGGTESKPHSRPYMAYLEIVTSNGPSKFCGGFLIRRNFVLTAAHCAGRSITVTLGAHNITEEEDTWQKLEVIKQFRHPKYNTSTHHHDIMLLKLKEKASLTLAVGTLPFPSQFNFVPPGRMCRVAGWGRTGVLKPGSDTLQEVKLRLMDPQACSHYRDFDHNLQLCVGNPRKTKSAFRGDSGGPLLCAGVAQGIVSYGRLDAKPPRVFTRISHYRPWINQILQAN |  |
|  | 7.77 µM and 2.74 µM | chymase C22S/L99H/F173L/K192R/Y215H/R217T/S218V/A226R (enzyme) IIGGTESKPHSRPYMAYLEIVTSNGPSKFCGGFLIRRNFVLTAAHCAGRSITVTLGAHNITEEEDTWQKLEVIKQFRHPKYNTSTHHHDIMLLKLKEKASLTLAVGTLPFPSQFNFVPPGRMCRVAGWGRTGVLKPGSDTLQEVKLRLMDPQACSHLRDFDHNLQLCVGNPRKTKSAFRGDSGGPLLCAGVAQGIVSHGTVDAKPPRVFTRISHYRPWINQILQAN |  |
|  | 5.62 µM | chymase C22S/L99H/F173I/K192R/Y215K/R217T/S218I/A226R (enzyme) IIGGTESKPHSRPYMAYLEIVTSNGPSKFCGGFLIRRNFVLTAAHCAGRSITVTLGAHNITEEEDTWQKLEVIKQFRHPKYNTSTHHHDIMLLKLKEKASLTLAVGTLPFPSQFNFVPPGRMCRVAGWGRTGVLKPGSDTLQEVKLRLMDPQACSHIRDFDHNLQLCVGNPRKTKSAFRGDSGGPLLCAGVAQGIVSKGTIDAKPPRVFTRISHYRPWINQILQAN |  |
|  | 1.94 µM | chymase C22S/F41V/L99W/G151L/F173K/R217S/A226R (enzyme) IIGGTESKPHSRPYMAYLEIVTSNGPSKVCGGFLIRRNFVLTAAHCAGRSITVTLGAHNITEEEDTWQKLEVIKQFRHPKYNTSTWHHDIMLLKLKEKASLTLAVGTLPFPSQFNFVPPGRMCRVAGWGRTGVLKPLSDTLQEVKLRLMDPQACSHKRDFDHNLQLCVGNPRKTKSAFKGDSGGPLLCAGVAQGIVSYGSSDAKPPRVFTRISHYRPWINQILQAN |  |
|  | 1.02 µM | chymase C22S/L99Y/F173Y/K192R/S218L/A226R (enzyme) IIGGTESKPHSRPYMAYLEIVTSNGPSKFCGGFLIRRNFVLTAAHCAGRSITVTLGAHNITEEEDTWQKLEVIKQFRHPKYNTSTYHHDIMLLKLKEKASLTLAVGTLPFPSQFNFVPPGRMCRVAGWGRTGVLKPGSDTLQEVKLRLMDPQACSHYRDFDHNLQLCVGNPRKTKSAFRGDSGGPLLCAGVAQGIVSYGRLDAKPPRVFTRISHYRPWINQILQAN |  |
|  | 7.77 µM | chymase F41V/L99H/G151V/F173Y/Y215K/R217G/A226R (enzyme) IIGGTECKPHSRPYMAYLEIVTSNGPSKVCGGFLIRRNFVLTAAHCAGRSITVTLGAHNITEEEDTWQKLEVIKQFRHPKYNTSTHHHDIMLLKLKEKASLTLAVGTLPFPSQFNFVPPGRMCRVAGWGRTGVLKPVSDTLQEVKLRLMDPQACSHYRDFDHNLQLCVGNPRKTKSAFKGDSGGPLLCAGVAQGIVSKGGSDAKPPRVFTRISHYRPWINQILQAN |  |
| 428 |  | chymase C22S/F173Y/D175N/A226R (enzyme, also called MS No. 18) IIGGTESKPHSRPYMAYLEIVTSNGPSKFCGGFLIRRNFVLTAAHCAGRSITVTLGAHNITEEEDTWQKLEVIKQFRHPKYNTSTLHHDIMLLKLKEKASLTLAVGTLPFPSQFNFVPPGRMCRVAGWGRTGVLKPGSDTLQEVKLRLMDPQACSHYRNFDHNLQLCVGNPRKTKSAFKGDSGGPLLCAGVAQGIVSYGRSDAKPPRVFTRISHYRPWINQILQAN | fB Cleavage, 64% A2M-depl plasma EC50 [1]: 1.65 µM; fB Cleavage, 80% plasma EC50 [1]: 11.2 µM |
| 269 |  | chymase C22S/P38Q/V138I/V183I/L199V/A226R/F228V (enzyme) IIGGTESKPHSRPYMAYLEIVTSNGQSKFCGGFLIRRNFVLTAAHCAGRSITVTLGAHNITEEEDTWQKLEVIKQFRHPKYNTSTLHHDIMLLKLKEKASLTLAVGTLPFPSQFNFVPPGRMCRIAGWGRTGVLKPGSDTLQEVKLRLMDPQACSHFRDFDHNLQLCIGNPRKTKSAFKGDSGGPVLCAGVAQGIVSYGRSDAKPPRVVTRISHYRPWINQILQAN |  |
| 40 | 0.139 µM | chymase C22S/K40L/F41H/L99N/F173Y/D175N/S218L/A226R (enzyme, also called MS No. 16) IIGGTESKPHSRPYMAYLEIVTSNGPSLHCGGFLIRRNFVLTAAHCAGRSITVTLGAHNITEEEDTWQKLEVIKQFRHPKYNTSTNHHDIMLLKLKEKASLTLAVGTLPFPSQFNFVPPGRMCRVAGWGRTGVLKPGSDTLQEVKLRLMDPQACSHYRNFDHNLQLCVGNPRKTKSAFKGDSGGPLLCAGVAQGIVSYGRLDAKPPRVFTRISHYRPWINQILQAN | fB Cleavage, 80% plasma EC50 [1]: 5.07 µM |

The remaining lines, values behind:

| Binder | kapp [2] [M⁻¹ s⁻¹] | fB Cleavage EC50 [1] | other results |
| --- | --- | --- | --- |
| chymase C22S/K40L/F41K/L99N/F173Y/S218L/A226R (enzyme) IIGGTESKPHSRPYMAYLEIVTSNGPSLKCGGFLIRRNFVLTAAHCAGRSITVTLGAHNITEEEDTWQKLEVIKQFRHPKYNTSTNHHDIMLLKLKEKASLTLAVGTLPFPSQFNFVPPGRMCRVAGWGRTGVLKPGSDTLQEVKLRLMDPQACSHYRDFDHNLQLCVGNPRKTKSAFKGDSGGPLLCAGVAQGIVSYGRLDAKPPRVFTRISHYRPWINQILQAN | 197 |  | fB Cleavage, 80% plasma EC50 [1]: 14 µM |
| chymase C22S/F41R/L99Y/G151T/F173K/R217S/A226R (enzyme) IIGGTESKPHSRPYMAYLEIVTSNGPSKRCGGFLIRRNFVLTAAHCAGRSITVTLGAHNITEEEDTWQKLEVIKQFRHPKYNTSTYHHDIMLLKLKEKASLTLAVGTLPFPSQFNFVPPGRMCRVAGWGRTGVLKPTSDTLQEVKLRLMDPQACSHKRDFDHNLQLCVGNPRKTKSAFKGDSGGPLLCAGVAQGIVSYGSSDAKPPRVFTRISHYRPWINQILQAN |  | 3.45 µM |  |
| chymase C22S/F41R/L99H/G151T/F173Y/Y215K/R217M/A226R (enzyme) IIGGTESKPHSRPYMAYLEIVTSNGPSKRCGGFLIRRNFVLTAAHCAGRSITVTLGAHNITEEEDTWQKLEVIKQFRHPKYNTSTHHHDIMLLKLKEKASLTLAVGTLPFPSQFNFVPPGRMCRVAGWGRTGVLKPTSDTLQEVKLRLMDPQACSHYRDFDHNLQLCVGNPRKTKSAFKGDSGGPLLCAGVAQGIVSKGMSDAKPPRVFTRISHYRPWINQILQAN |  | 1.69 µM |  |
| chymase C22S/F41I/L99W/G151L/F173K/R217S/A226R (enzyme) IIGGTESKPHSRPYMAYLEIVTSNGPSKICGGFLIRRNFVLTAAHCAGRSITVTLGAHNITEEEDTWQKLEVIKQFRHPKYNTSTWHHDIMLLKLKEKASLTLAVGTLPFPSQFNFVPPGRMCRVAGWGRTGVLKPLSDTLQEVKLRLMDPQACSHKRDFDHNLQLCVGNPRKTKSAFKGDSGGPLLCAGVAQGIVSYGSSDAKPPRVFTRISHYRPWINQILQAN |  | 1.74 µM |  |
| chymase C22S/F41V/L99F/G151R/F173K/R217S/A226R (enzyme) IIGGTESKPHSRPYMAYLEIVTSNGPSKVCGGFLIRRNFVLTAAHCAGRSITVTLGAHNITEEEDTWQKLEVIKQFRHPKYNTSTFHHDIMLLKLKEKASLTLAVGTLPFPSQFNFVPPGRMCRVAGWGRTGVLKPRSDTLQEVKLRLMDPQACSHKRDFDHNLQLCVGNPRKTKSAFKGDSGGPLLCAGVAQGIVSYGSSDAKPPRVFTRISHYRPWINQILQAN |  | 3.65 µM |  |
| chymase C22S/F41R/L99G/G151T/F173Y/Y215R/R217M/A226R (enzyme) IIGGTESKPHSRPYMAYLEIVTSNGPSKRCGGFLIRRNFVLTAAHCAGRSITVTLGAHNITEEEDTWQKLEVIKQFRHPKYNTSTGHHDIMLLKLKEKASLTLAVGTLPFPSQFNFVPPGRMCRVAGWGRTGVLKPTSDTLQEVKLRLMDPQACSHYRDFDHNLQLCVGNPRKTKSAFKGDSGGPLLCAGVAQGIVSRGMSDAKPPRVFTRISHYRPWINQILQAN |  | 4.33 µM |  |
| chymase C22S/F41V/L99H/G151R/F173L/Y215R/R217T/A226R (enzyme) IIGGTESKPHSRPYMAYLEIVTSNGPSKVCGGFLIRRNFVLTAAHCAGRSITVTLGAHNITEEEDTWQKLEVIKQFRHPKYNTSTHHHDIMLLKLKEKASLTLAVGTLPFPSQFNFVPPGRMCRVAGWGRTGVLKPRSDTLQEVKLRLMDPQACSHLRDFDHNLQLCVGNPRKTKSAFKGDSGGPLLCAGVAQGIVSRGTSDAKPPRVFTRISHYRPWINQILQAN |  | 8.06 µM |  |
| chymase C22S (enzyme, For all chymase variants: mutation names are in chymotrypsin numbering) IIGGTESKPHSRPYMAYLEIVTSNGPSKFCGGFLIRRNFVLTAAHCAGRSITVTLGAHNITEEEDTWQKLEVIKQFRHPKYNTSTLHHDIMLLKLKEKASLTLAVGTLPFPSQFNFVPPGRMCRVAGWGRTGVLKPGSDTLQEVKLRLMDPQACSHFRDFDHNLQLCVGNPRKTKSAFKGDSGGPLLCAGVAQGIVSYGRSDAKPPAVFTRISHYRPWINQILQAN | 31200 | 0.265 µM | fB Cleavage, 64% A2M-depl plasma EC50 [1]: 1.52 µM; fB Cleavage, 64% plasma EC50 [1]: 7.88 µM; fB Cleavage, 80% plasma EC50 [1]: 10.2 µM |
| chymase C22S/A226R (enzyme) IIGGTESKPHSRPYMAYLEIVTSNGPSKFCGGFLIRRNFVLTAAHCAGRSITVTLGAHNITEEEDTWQKLEVIKQFRHPKYNTSTLHHDIMLLKLKEKASLTLAVGTLPFPSQFNFVPPGRMCRVAGWGRTGVLKPGSDTLQEVKLRLMDPQACSHFRDFDHNLQLCVGNPRKTKSAFKGDSGGPLLCAGVAQGIVSYGRSDAKPPRVFTRISHYRPWINQILQAN | 1040 | 5.21 µM |  |
| chymase C22S/A190S/A226R (enzyme) IIGGTESKPHSRPYMAYLEIVTSNGPSKFCGGFLIRRNFVLTAAHCAGRSITVTLGAHNITEEEDTWQKLEVIKQFRHPKYNTSTLHHDIMLLKLKEKASLTLAVGTLPFPSQFNFVPPGRMCRVAGWGRTGVLKPGSDTLQEVKLRLMDPQACSHFRDFDHNLQLCVGNPRKTKSSFKGDSGGPLLCAGVAQGIVSYGRSDAKPPRVFTRISHYRPWINQILQAN | 1600 | 0.407 µM |  |
